The values below come from patent EP4643867A1 (Eberhard Karls Universität Tübingen (Medizinische Fakultät), dated 2025).

In assay [1] the target is VEGF (autocrine, of U937 acute myeloid leukemia cells) (UniProt P15692-4 27-191, limits assumed). The assay is described as follows: cell-based or functional assay.
The target in assay [2] is T1, Recombinant Human VEGF165 (R&D Systems, 293-VE-010/CF) (human, UniProt P15692 27-191).
T1 construct: mature; Amine-coupled to a CM5 chip for SPR, and added to the medium in the HUVEC survival assay; also called rhVEGF
The assay is described as follows: SPR (Biacore X100), rhVEGF165 amine-coupled to CM5 chip, design as analyte, multi-cycle kinetics, 1:1 binding assumed.

Usually Kd stands for the concentration at which binding is half-saturated.

Values joined by “and” are separate entries in the source; they are usually repeats but may differ in a detail not shown here. Equal values may be shown once.

VEGF (autocrine, of U937 acute myeloid leukemia cells), sequence (P15692 other isoform, or with tags, fused parts or gaps limits assumed): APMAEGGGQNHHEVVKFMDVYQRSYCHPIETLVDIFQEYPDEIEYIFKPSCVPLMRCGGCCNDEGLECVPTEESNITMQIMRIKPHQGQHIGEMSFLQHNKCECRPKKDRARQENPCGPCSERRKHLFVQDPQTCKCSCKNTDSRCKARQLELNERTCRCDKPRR
T1 sequence (P15692 other isoform, or with tags, fused parts or gaps): as the sequence (P15692 other isoform, or with tags, fused parts or gaps limits assumed) above

B1: Sam0.7 (designed binder)
chain: LPTAEEVQKLMARYIELMDVGDIEAIVQMYADDATVEAPFGAPPIHGRERIAYFYRRMLGGGIARATLTGPVRASHNGTGAMPFRVEYVFNGQPFAMDVRVEMRFDEHGRIQTMQAYWDWVNLSVREP
notes: Designed on the ketosteroid isomerase scaffold (PDB 1OH0); Made in E. coli; The monomeric gel filtration fraction was used; not shown: N-terminal poly-histidine tag and thrombin cleavage site from pET28a(+)
Regarding B1, the “IC50, proliferation of U937 cells” value in assay [1] is 8 µg/ml and 533 nM. The Kd in assay [2] came out at 190 nM.

B2: Sima3.2 (designed binder)
chain: STNISPKQGLDKAKYFSGKWYLTHVLIKDPKIVSQFCASFTPRESDGTVKIAVYLYLAIKKTSDYAIGEGKLESSGLQYTATSKVVDKKKAVLKELDERHSYTVTVLEADDSSALTHITVREGSKDYGDYYLVLTHQKDAEPSAKVKSAVTQAGLQLSQFVGTKDLGCQYDDQFTSL
notes: not shown: N-terminal poly-histidine tag and thrombin cleavage site from pET28a(+)
For the molecule B2, the “IC50, proliferation of U937 cells” value in assay [1] is 3.6 µg/ml and 180 nM. In addition, in assay [2], the Kd is 14 nM.
